Measurements: patent publication US20130251640A1 (METHODIST HOSPITAL SYSTEM, published 2013)
Non-standard residues stand in square brackets, D forms with d. *: point of attachment. Dnp = O=[N+]([O-])c1ccc(*)c([N+](=O)[O-])c1; Mca = COc1ccc2c(CC(=O)*)cc(=O)oc2c1

B1: substrate d, Mca-Ala-Gly-Phe-Ser-Leu**Gly-Pro-Lys(Dnp)-DArg-CONH2 (peptide)
peptide: Mca-AGFSLGPK(Dnp)[dR]-NH2
SMILES: COc1ccc2c(CC(=O)N[C@@H](C)C(=O)NCC(=O)N[C@@H](Cc3ccccc3)C(=O)N[C@@H](CO)C(=O)N[C@@H](CC(C)C)C(=O)NCC(=O)N3CCC[C@H]3C(=O)N[C@@H](CCCCNc3ccc([N+](=O)[O-])cc3[N+](=O)[O-])C(=O)N[C@H](CCCNC(=N)N)C(N)=O)cc(=O)oc2c1
B2: substrate e, Mca-Ala-Gly-Phe-Ser-Leu**Pro-Ala-Lys(Dnp)-D-Arg-CONH2 (peptide)
peptide: Mca-AGFSLPAK(Dnp)[dR]-NH2
SMILES: COc1ccc2c(CC(=O)N[C@@H](C)C(=O)NCC(=O)N[C@@H](Cc3ccccc3)C(=O)N[C@@H](CO)C(=O)N[C@@H](CC(C)C)C(=O)N3CCC[C@H]3C(=O)N[C@@H](C)C(=O)N[C@@H](CCCCNc3ccc([N+](=O)[O-])cc3[N+](=O)[O-])C(=O)N[C@H](CCCNC(=N)N)C(N)=O)cc(=O)oc2c1
B3: substrate c, Mca-Gly-Pro-Ile-Leu-Phe**Phe-Arg-Leu-Lys(Dnp)-DArg-CONH2 (peptide)
peptide: Mca-GPILFFRLK(Dnp)[dR]-NH2
SMILES: CC[C@H](C)[C@H](NC(=O)[C@@H]1CCCN1C(=O)CNC(=O)Cc1cc(=O)oc2cc(OC)ccc12)C(=O)N[C@@H](CC(C)C)C(=O)N[C@@H](Cc1ccccc1)C(=O)N[C@@H](Cc1ccccc1)C(=O)N[C@@H](CCCNC(=N)N)C(=O)N[C@@H](CC(C)C)C(=O)N[C@@H](CCCCNc1ccc([N+](=O)[O-])cc1[N+](=O)[O-])C(=O)N[C@H](CCCNC(=N)N)C(N)=O
B4: substrate a, Mca-Gly-Ser-Pro-Ala-Phe**Leu-Ala-Lys(Dnp)-DArg-CONH2 (peptide)
peptide: Mca-GSPAFLAK(Dnp)[dR]-NH2
SMILES: COc1ccc2c(CC(=O)NCC(=O)N[C@@H](CO)C(=O)N3CCC[C@H]3C(=O)N[C@@H](C)C(=O)N[C@@H](Cc3ccccc3)C(=O)N[C@@H](CC(C)C)C(=O)N[C@@H](C)C(=O)N[C@@H](CCCCNc3ccc([N+](=O)[O-])cc3[N+](=O)[O-])C(=O)N[C@H](CCCNC(=N)N)C(N)=O)cc(=O)oc2c1
B5: substrate b, Mca-Gly-Pro-Ile-Leu-Phe**Phe-Arg-Leu-Gly-Lys(Dnp)-DArg-CONH2 (peptide)
peptide: Mca-GPILFFRLGK(Dnp)[dR]-NH2
SMILES: CC[C@H](C)[C@H](NC(=O)[C@@H]1CCCN1C(=O)CNC(=O)Cc1cc(=O)oc2cc(OC)ccc12)C(=O)N[C@@H](CC(C)C)C(=O)N[C@@H](Cc1ccccc1)C(=O)N[C@@H](Cc1ccccc1)C(=O)N[C@@H](CCCNC(=N)N)C(=O)N[C@@H](CC(C)C)C(=O)NCC(=O)N[C@@H](CCCCNc1ccc([N+](=O)[O-])cc1[N+](=O)[O-])C(=O)N[C@H](CCCNC(=N)N)C(N)=O

Experiments:
Experiment in all cases: cell-based or functional assay
[1] = biological target: T1, Cathepsin E (purchased from Calbiochem, EMD Bioscience)
T1 sequence (P14091 whole entry, species assumed, looked up): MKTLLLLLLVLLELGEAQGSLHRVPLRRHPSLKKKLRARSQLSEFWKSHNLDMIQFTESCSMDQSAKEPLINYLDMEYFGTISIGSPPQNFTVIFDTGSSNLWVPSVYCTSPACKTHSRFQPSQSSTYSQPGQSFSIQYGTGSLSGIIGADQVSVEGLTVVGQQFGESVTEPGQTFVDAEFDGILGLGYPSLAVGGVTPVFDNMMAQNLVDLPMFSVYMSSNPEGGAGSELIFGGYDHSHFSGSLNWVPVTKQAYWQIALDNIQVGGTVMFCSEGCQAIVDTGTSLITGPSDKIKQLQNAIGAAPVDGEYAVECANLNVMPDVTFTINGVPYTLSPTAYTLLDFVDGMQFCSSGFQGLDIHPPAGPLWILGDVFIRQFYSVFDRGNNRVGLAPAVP

[2] = biological target: Cathepsin B (purchased from Calbiochem, EMD Bioscience)
[3] = biological target: Cathepsin S (purchased from Calbiochem, EMD Bioscience)

Binder | net fluorescence signal ratio (Cath E/Cath D) at 10 minutes [1] [fold] | net fluorescence signal ratio (Cath E/Cath D) at 45 minutes [1] [fold] | net fluorescence signal ratio (Cath E/Cath D) at the initial time point [1] [fold] | net fluorescence signal ratio (Cath E/Cath D) immediately after incubation [1] [fold] | other results
B1 | 4 | 2.3 | 12 |  | 
B2 |  |  |  |  | fluorescence signal increase relative to that observed with Cath E, 90 minutes [2]: < 15%; fluorescence signal increase relative to that observed with Cath E, 90 minutes [3]: < 15%; net fluorescence signal ratio (Cath E/Cath D) at 1 minute [1]: 265 fold
B3 |  |  |  | 1.5 | 
B4 | 4.5 | 1.6 | 17.9 |  | 
B5 |  |  |  | 1.6 | 
